These results are taken from the DeepSol protein solubility set.

The series in a line: soluble on expression in E. coli; label from the status in PepcDB or PDB records.
“MLSRKKTKNEVSKPAEVQGKYVKKETSPLLRNLMPSFIRHGPTIPRRTDLCLPDSSATAFSASGDGIVSRNQSFLRTAIQRTPHEVMRRESHRLSAPSYLVRSLADVPRECGSSQSFLTEVNFAVENGDSGSRYFFSDNFFDGQRRRPLGDRAQEDYRYYEYNHDLFQRMPQSQGRHTSGIGRVTATSLGNLTNHGSEDLPLPPGWSVDWTMRGRKYYIDHNTNTTHWSHPLEREGLPPGWERVESSEFGTYYVDHTNKRAQYRHPCAPSVPRYDQPPPITYQPQQTERNQSLLVPANPYHTAEIPDWLQVYARAPVKYDHILKWELFQLADLDTYQGMLKLLFMKELEQIVKLYEAYRQALLTELENRKQRQQWYAQQHGKTFLS”: the “soluble on expression in E. coli” value is on record as “soluble”.

Consider “MCARIQQLPVFFIFILYGSCATTKRNIYVLAINKLMEQQIRKYESFNDLPADCKKLFDSGEKDSFDLSRDWFLLLETTVIRQTKEICIFTLEIEGVTQGIWPTLLQKKGKLSLRQISSFTCFYSSLYQPLISSSLTVDKLADCLRWILSDTRTDVLRFDIMDPSQSSFNLHEQALKKIGFKTDRFFCWGNWYLPVNNQPFSVYLQNLSSRVRNTLERRKKKFLAGGHGKLEILTTHDKLPIAIQAWEKIYNASWKIPEPYPEFMPSLISLCAAKGWLRLGIAYYDEEPIAAQLWIVNQGRAAIYKLAYDEKFAHLSPGTILTAHLMQHAIDVDKVHEVDYLTGDDAYKKDWMSHRRERLGLVAYNLRSFWGLIGISKHIAGKIRKKILKSLK”, for which the “soluble on expression in E. coli” value is “not soluble”.

As to “MSNFEKKYILELNDALSHLNHNSTSFDLLKVLISWLSNDIVIDKFKILGYDFSKYIEMNPDDYPVEKSILNREEIIYLKNNIYRKISSGNFKFQYFVQYIRDILEYLFIEHIERVCPYCEWGEMQKLEEQNTHETVYLCTQCGCAFYNDNSQFLLKTPLTIPMKRDEFK”, the “soluble on expression in E. coli” value is “not soluble”.

As for “RLSLRAKAKEINLENLEEFVSEVKARNLKAYLAVNSTVNEDRLEEAGNVINAAAKAGVDAVIAWDPAVILKARKSGLRIHISTQANTTNHETAEFYRALGAERIVLSRELSLEEIREIRQRSEVEVETFVHGAMCMAVSGRCHLSAYVLGKSGNCGECTQPCRWEWELHGENNLVMESRGKYLLSAKDLCMIEHIPALLGARIDSFKVEGRLRDPGYLEVVSRCYREAIDACKEGTYTREKVDSWLSKLSSVYNRGFSTGFYFGIPGLEGFSPEKSMNASEKKRRAAGIVENYYPRQHAAAIKLLEEGLEIGNEILIEGSTTYLKQRVTSLIKNGMSLQKAEKGDEVGLAVDGTVRRNDRIFI”, the “soluble on expression in E. coli” value is reported as “not soluble”.

For “MGSDKIHHHHHHMAKKVAVLAVNPVNGCGLFQYLEAFFENGISYKVFAVSDTKEIKTNSGMVLIVDDVIANLKGHEDEFDALVFSCGDAVPVFQQYANQPYNVDLMEVIKTFGEKGKMMIGHCAGAMMFDFTGITKGKKVAVHPLAKPAIQNGIATDEKSEIDGNFFTAQDENTIWTMLPKVIEALK”, the “soluble on expression in E. coli” value is listed as “not soluble”.

Consider “SAFSGTWQVYAQENYEEFLRAISLPEEVIKLAKDVKPVTEIQQNGSDFTITSKTPGKTVTNSFTIGKEAEITTMDGKKLKCIVKLDGGKLVTRTDRFSHIQEIKAGEMVETLTVGGTTMIRKSKKILVP”, for which the “soluble on expression in E. coli” value was “soluble”.

As for “MKIAVLGASGWIGGTILNEALSRGHEVVALVRDPSKLGETAAEVRSVDLAKPLTADTFAGVDVLIASVGGRADLNHSLVAKTVNNLLALLPLAKVPRLLWVGGAGSLEVAPGVTLVSSPDFPPAYKDEALAQGEALKAFRAANTAVNWTFVSPAAEIYPGESEGLYRLGGDSFFTDAKGRSRISVTDYAKAMLDEAEKGAHPNQRISVAYLEHHHHHH”, the “soluble on expression in E. coli” value is “soluble”.

Turning to “MGHHHHHHSHMLKSERKQIILSQLKQDGFVTLENLTVLLSDTSESTIRRDLDELAADGKLKRVHGGAESIHGLKEEIANSQKAIRNVQEKAQLAGYAADLIKEGDVVFLEASTTNELLIPHLSNRQVTVVTNSIHHAVKLVDLGISTRIIGGKVKHSTDASIGSTALEQIRQLNFDCAFIGANGVDANYFTTPDMEEAVIKRTVIANAQKAYVLADASKLGQITYAKVAEVEKVTIITNASEEGLLKELKEKTRVIEV”, the “soluble on expression in E. coli” value is reported as “soluble”.

On to “MSALLPIINRLILQSPDSRSELAAFAGKTLTLNIAGLKLAGRITEDGLLSAGNGFADTEITFRNSAVQKILQGGEPGAGDIGLEGDLILGIAVLSLLGSLRSRASDELARIFGTQADIGSRAADIGHGIKQIGRNIAEQIGGFSRESESANIGNEALADCLDEISRLRDGVERLNERLDRLERDIWID”, for which the “soluble on expression in E. coli” value is reported as “not soluble”.

As for “MNTTANPSNIIVGLSGGVDSSVTAALLKQQGYQVRGVFMQNWEDDDNDEYCSIKQDSFDAIAVADIIGIDIDIVNFAAQYKDKVFAYFLQEYSAGRTPNPDVLCNAEIKFKCFLDYAVGQGADTIATGHYARKEVRNGVHYLLKGLDRNKDQSYFLYRLKPFQLERAIFPLGGLEKPEVRRLAAEFKLPTAAKKDSTGICFIGERPFREFLQKYLPTDNGKMVTPEGKTVGEHVGLMFYTLGQRKGLGIGGAGEPWFVAAKDLTKNELIVVQGHDHPLLYTRSLVMNDLSFTLPERPKAGRYTCKTRYRMADAPCELRYLDDETAELVFDEPQWAVTPGQSAVLYDGDICLGGGIIQTTDKPVIITR”, the “soluble on expression in E. coli” value is given as “not soluble”.

For the sequence “MSLDNKNKSEVQAQETVQVSYKEKNRESSLASALDVLSRFGGFNFLESTVDGVQNLNPERKARKKIFLTDEQKQEEREVLKNKIDMWIDLLNSSSAVTEMIATSKAKSEAAASHLAKSQLVAVQSVRDMEQAYRGVMLFYKNTEADKVNNVTIVNASKEQLTDLDNPRFIDFVARELKQNYDKLDLRQNYSLLAIPGYLGSNKVLEKWAKIAYENKVMLYTDFADLDKPEDVVELFSSSNMASGEAFKSNTCMTCNWLVGRAGYREIGEEEDLHVSPSIALMGKVYTTLMSQVTAGKKYGGINEIDAVVFPLKKSEISQLEKMGLIPMVNEYGKVMAFSAKTLFNGDNLGLQTYSVVRVFDYITKVLFDFLNRRSFENWSSKTERDLRGQIVQYLDSVQGADRLIEKFKIIRFEQDQKQKDRIYLDIHMTPFFPAKSFVIKLDGTKGDDGTNWNTNYEEGHHHHHH”, the “soluble on expression in E. coli” value was “not soluble”.

For the sequence “MVEIIDTTFRDAHQSLIATRMSTKDMLPIAEKMDKIGFYSMEVWGGATFDVSLRFLREDPWERLKLLREHIRKTKLQMLLRGQNLVGYRHYPDDVVEKFVELAYKNGIDIFRVFDALNDVRNMKTAIKKAKEIGAEVQGAICYTTGPIFTIDYYLQKVDELIELDVDYITIKDMAGLADPQTAYELVKEIKERYGIKVNFHTHATSGLAVATYLKAVEAGVDYIDTSIYPLAGGTAQPAVQTMYYALPKGKRPKLNIKLIHEISKYLTNLLEKKYDHLLTKKAIHGDPNVLIHQIPGGMYSNLIKQLSELKALDKLEEVLEEVPRVREDLGYPPLVTPTSQIVGVQAVLNVLFGRYKQVTKETKDYVRGLYGRPPGKIKEEIKKLILGDEEPINVRPADLLEPMLEKAKKELKEKGYLEKEEDVVTYCLFPQVALEFFELRRQGRLRPVEEKPKGKPIKIYINGKEFEVFVEGIEFEPPKPKPQVQAIPSQPPKREVVAPSGSVVSAPMPGKVLRVLVRVGDRVRVGQGLLVLEAMKMENEIPSPRDGVVKRILVKEGEAVDTGQPLIELE”, the “soluble on expression in E. coli” value was “soluble”.

Turning to “MAEHRGGSGNFAEDREKASDAGRKGGQHSGGNFKNDPQRASEAGKKGGQQSGGNKSGKS”, the “soluble on expression in E. coli” value is listed as “soluble”.

With “GSHMKDYSLEIDAVMKAAQINDTNNFVQALMRWHFSKETGSPFWLGMREQLNFDPIKDVKTINDLRQFSDISHCLRQEPVANLVPQGLPADSHPQVYESGGTTGAPKYVVAYDAWIEALISWRMSGYQHRPGRPSGNTLAAIPTGPHIVGAINKERALRLGGMFFSIDIDPRWVKRSLSEGDTATVRKYTHHLVDQVQNTLMNQDIRFLVTTPPVLRELLKRPEVVLQMKQSLAQITLGGTELNLDEIKFIASEILPDCEFSASYGSTSALGVSRSLLITSESQQVIYDSFSPFITYDVVDSITAQTVEYGERGNVIVTHLSPWAFYPRVAERDTAIRLPGVSGFAGDRLADIEPLKISEGRKVIEGVY”, the “soluble on expression in E. coli” value is listed as “soluble”.

With “MTAMLSMACRRAVRAGAHCDEGGHVKAFDYPDSMNNKPVPIVLRRTSIGLILFILPAMLIGCSRVPVKTQPKPASVNVWPLTTPANPEAANEVVMRALSLVGTPYRFGGNTPESGFDCSGLVSYVYRDALDLRLPRTSYELAAVQGPKIDAEQLTTGDLVFFGSARSVTHVGIYLSEGRFVHAPSSGGTVRLDRLDTPYWRDHYTGAKRVLRIIEAKVSMVFTDKCHLTFTHYGEESAQAALHTYFNIGDINQVEVQGLPETCFNSLNQQQENVPSPRHISENVDCIYSAENMQNQILDKSFNRTIALHHHNASQFVLWNPWHKKTSGMSETGYQKMLCLETARIHHLLEFGESLSVEISLKG”, the “soluble on expression in E. coli” value is recorded as “soluble”.

On to “MGKPTGFMEIKREKPAERDPLTRLKDWKEYSAPFSEEASKRQGARCMDCGTPFCQIGADINGFTSGCPIYNLIPEWNDLVYRGRWKEALERLLKTNNFPEFTGRVCPAPCEGSCTLAISDPAVSIKNIERTIIDKGFENGWIQPRIPKKRTGKKVAIVGSGPAGLASADQLNQAGHSVTVFERADRAGGLLTYGIPNMKLEKGIVERRIKLLTQEGIDFVTNTEIGVDITADELKEQFDAVILCTGAQKQRDLLIEGRDSKGVHYAMDYLTLATKSYLDSNFKDKQFIDAKGKDVIVIGGGDTGADCVATALRQKAKSVHQFGKHPKLPPARTNDNMWPEQPHVFTLEYAYEEREAKFGRDPREYSIQTTKMVADKNGKLKELHTIQMEKVKNEHGKYEFRELPGTEKVWPAQLVFIAIGFEGTEQPLLKQFGVNSVNNKISAAYGDYQTNIDGVFAAGDARRGQSLIVWAINEGREVAREVDRYLMGSSVLPLEHHHHHH”, for which the “soluble on expression in E. coli” value is on record as “soluble”.

Regarding “MKRGIIIIEDKKVSVTGNEVWMTATEIAGLFRAGVPAVNAAIKAVRKSDVLNDYEVCRYMRLENGLHADVYALEIIIPIAFRLNTYCTHVFRRWLVEKALAKEKQQAYVMLIHKANGYC”, the “soluble on expression in E. coli” value is listed as “not soluble”.

Regarding “MAYFIDRRLNGKNKSTVNRQRFLRRYKSQIKQSISEAINKRSVTDIESGESVSIPNADINEPMFHQGRGGHRHRVHPGNDHFVQNDKIERPQGGGGSGSGQGDASKDGEGDDEFVFQISKDEYLDLLFEDLALPNLKKTQHRQMTEYKMHRAGYTANGVPANISVVRSLQNSLARRMAMTAGKRRTLHELEESLEQLAYTEPAQLLEEERLREDIAELRKKIARVPFIDTFDLRYKNYERRAEPSSQAVMFCLMDVSGSMDQATKDMAKRFYILLYLFLSRNYKNVDVVYIRHHTQAKEVDEQEFFYSQETGGTIVSSALKLMEEVVRERYDPSQWNIYAAQASDGDNWADDSPLCHQILASKLLPMVRYYSYIEITRRSHQTLWREYETLRDTFDNFAMQHIRDQDDIYPVFRELFRKQTVGHLEHHHHHH”, the “soluble on expression in E. coli” value is “not soluble”.

As for “GHMAGGTKRLPRAVREQQMLDAAVDVFSDRGFHETSMDAIAAKAEISKPMLYLYYGSKDELFAACIQREGLRFVEALAPAGDPGLSPREQLRRALEGFLGFVGKHRKSWMVLYRQAMGQQAFVGSVQSSRDRLIELTAHLLESSTKDPEPGQDFELIAIALVGAGEAVADRVAGGEIEVDAAADLLESLAWRGLAGKKKPEGS”, the “soluble on expression in E. coli” value is “soluble”.

In the case of “MSLKAFLPLLFSFFFIISCQQHKEATISPIDEEDELQEEADSLPRATAIFWLDKYHMKELKKDDVLTFRTAKAKVVIRNDGTIDLLSFVEQQPGNAQRYIRYRLKDFKVKKILMDNGYINPGEQYVQLRYIPALARRVKEGHHHHHH”, the “soluble on expression in E. coli” value is listed as “soluble”.
